B1: C10orf62 (parent)
chain: RALEEVEMKLQKNFLTQRENTIAG

Variants of: B1
Assay: protein stability index of a GFP-peptide fusion (GPS, HEK-293T) (PSI 1-6); higher = more stable
Conditions: c terminus: a fixed tail appended
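Note: lentivirally expressed fusions sorted by FACS into six bins by GFP to DsRed ratio, PSI derived from sequencing read proportions per bin multiplied by bin number.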

First: RAKEEVEMKLQKNFLTQRENTIAG [L3K]
Second: WALEEVEMKLQKNFLTQRENTIAG [R1W]
The protein stability index of the first is higher: 4.33 for the first, 3.15 for the second.

First: LALEEVEMKLQKNFLTQRENTIAG [R1L]
Second: DALEEVEMKLQKNFLTQRENTIAG [R1D]
The protein stability index of the first is lower: 2.54 for the first, 4.49 for the second.

First: VALEEVEMKLQKNFLTQRENTIAG [R1V]
Second: AALEEVEMKLQKNFLTQRENTIAG [R1A]
The protein stability index of the first is lower: 3.1 for the first, 3.89 for the second.

Compared with RALEEVEMKLQKNDLTQRENTIAG [F14D], RALEEVEMKLQKNCLTQRENTIAG [F14C] is lower in protein stability index: 4.66 for the first, 4.29 for the second.

Compared with RALEEVEMKLQKNTLTQRENTIAG [F14T], RALEEVEMKLQKNQLTQRENTIAG [F14Q] is higher in protein stability index: 4.11 for the first, 4.45 for the second.

First: RALEEVEMKLQKNLLTQRENTIAG [F14L]
Second: RALEEVEMKLQKNMLTQRENTIAG [F14M]
The protein stability index of the first is higher: 4.64 for the first, 3.82 for the second.

First: RALEEVEMKLQKNGLTQRENTIAG [F14G]
Second: RALEEVEMKLQKNILTQRENTIAG [F14I]
The protein stability index of the first is higher: 4.11 for the first, 3.86 for the second.

First: RALEEVEMKLQKNHLTQRENTIAG [F14H]
Second: RALEEVEMKLQKNFSTQRENTIAG [L15S]
The protein stability index of the first is higher: 4.47 for the first, 4.38 for the second.

First: RALEEVEMKLQKNFHTQRENTIAG [L15H]
Second: RALEEVEMKLQKNFWTQRENTIAG [L15W]
The protein stability index of the first is higher: 3.85 for the first, 2.63 for the second.

Compared with RALEEVEMKLQKNFATQRENTIAG [L15A], RALEEVEMKLQKNFCTQRENTIAG [L15C] is lower in protein stability index: 3.92 for the first, 3.44 for the second.

Going from RALEEVEMKLQKNFQTQRENTIAG [L15Q] to RALEEVEMKLQKNFVTQRENTIAG [L15V], the protein stability index falls from 4.84 to 3.77.

First: RALEEVEMKLQKNFRTQRENTIAG [L15R]
Second: RALEEVEMKLQKNFYTQRENTIAG [L15Y]
The protein stability index of the first is higher: 3.94 for the first, 3.71 for the second.

Compared with RALEEVEMKLQKNFTTQRENTIAG [L15T], RALEEVEMKLQKNFITQRENTIAG [L15I] is higher in protein stability index: 3.66 for the first, 3.71 for the second.

Going from RALPEVEMKLQKNFLTQRENTIAG [E4P] to RALMEVEMKLQKNFLTQRENTIAG [E4M], the protein stability index falls from 4.36 to 2.63.

Compared with RALLEVEMKLQKNFLTQRENTIAG [E4L], RALKEVEMKLQKNFLTQRENTIAG [E4K] is higher in protein stability index: 2.31 for the first, 3.36 for the second.

Compared with RALREVEMKLQKNFLTQRENTIAG [E4R], RALCEVEMKLQKNFLTQRENTIAG [E4C] is lower in protein stability index: 4 for the first, 3.31 for the second.

Compared with RALFEVEMKLQKNFLTQRENTIAG [E4F], RALDEVEMKLQKNFLTQRENTIAG [E4D] is higher in protein stability index: 3.13 for the first, 3.44 for the second.

First: RALYEVEMKLQKNFLTQRENTIAG [E4Y]
Second: RALAEVEMKLQKNFLTQRENTIAG [E4A]
The protein stability index of the first is lower: 2.56 for the first, 2.9 for the second.

Compared with RALNEVEMKLQKNFLTQRENTIAG [E4N], RALTEVEMKLQKNFLTQRENTIAG [E4T] is higher in protein stability index: 3.29 for the first, 3.72 for the second.

Going from RALHEVEMKLQKNFLTQRENTIAG [E4H] to RALIEVEMKLQKNFLTQRENTIAG [E4I], the protein stability index falls from 3.18 to 1.99.

Compared with RALEEVEMKLQKNFLTQRENTIHG [A23H], RALEEVEMKLQKNFLTQRENTIMG [A23M] is lower in protein stability index: 3.19 for the first, 3.05 for the second.

First: RALEEVEMKLQKNFLTQRENTIKG [A23K]
Second: RALEEVEMKLQKNFLTQRENTIIG [A23I]
The protein stability index of the first is higher: 4.31 for the first, 3.02 for the second.

Compared with RALEEVEMKLQKNFLTQRENTITG [A23T], RALEEVEMKLQKNFLTQRENTIGG [A23G] is lower in protein stability index: 3.67 for the first, 3.41 for the second.

First: RALEEVEMKLQKNFLTQRENTIWG [A23W]
Second: RALEEVEMKLQKNFLTQRENTIRG [A23R]
The protein stability index of the first is lower: 2.07 for the first, 3.51 for the second.

First: RALEEVEMKLQKNFLTQRENTIYG [A23Y]
Second: RALEEVEMKLQKNFLTQRENTIPG [A23P]
The protein stability index of the first is lower: 2.91 for the first, 3.93 for the second.

Compared with RALEEVEMKLQKNFLTQRENTIFG [A23F], RCLEEVEMKLQKNFLTQRENTIAG [A2C] is higher in protein stability index: 2.66 for the first, 3.27 for the second.

First: RHLEEVEMKLQKNFLTQRENTIAG [A2H]
Second: RTLEEVEMKLQKNFLTQRENTIAG [A2T]
The protein stability index of the first is lower: 3.55 for the first, 3.83 for the second.

Going from RQLEEVEMKLQKNFLTQRENTIAG [A2Q] to RWLEEVEMKLQKNFLTQRENTIAG [A2W], the protein stability index falls from 4.32 to 2.29.

First: RLLEEVEMKLQKNFLTQRENTIAG [A2L]
Second: RFLEEVEMKLQKNFLTQRENTIAG [A2F]
The protein stability index of the first is higher: 2.61 for the first, 2.54 for the second.

First: RYLEEVEMKLQKNFLTQRENTIAG [A2Y]
Second: RNLEEVEMKLQKNFLTQRENTIAG [A2N]
The protein stability index of the first is lower: 2.98 for the first, 3.89 for the second.

First: RDLEEVEMKLQKNFLTQRENTIAG [A2D]
Second: RMLEEVEMKLQKNFLTQRENTIAG [A2M]
The protein stability index of the first is higher: 4.1 for the first, 2.6 for the second.

Compared with RALEEVEMKLQKNFLTQGENTIAG [R18G], RALEEVEMKLQKNFLTQCENTIAG [R18C] is lower in protein stability index: 3.73 for the first, 2.91 for the second.

Going from RALEEVEMKLQKNFLTQFENTIAG [R18F] to RALEEVEMKLQKNFLTQMENTIAG [R18M], the protein stability index rises from 2.53 to 3.12.

Going from RALEEVEMKLQKNFLTQTENTIAG [R18T] to RALEEVEMKLQKNFLTQRENLIAG [T21L], the protein stability index falls from 3.46 to 3.2.

Compared with RALEEVEMKLQKNFLTQRENNIAG [T21N], RALEEVEMKLQKNFLTQRENQIAG [T21Q] is higher in protein stability index: 3.61 for the first, 3.85 for the second.

Going from RALEEVEMKLQKNFLTQRENEIAG [T21E] to RALEEVEMKLQKNFLTQRENPIAG [T21P], the protein stability index falls from 4.16 to 3.7.

Going from RALEEVEMKLQKNFLTQRENWIAG [T21W] to RALEEVEMKLQKNFLTQRENSIAG [T21S], the protein stability index rises from 2.93 to 4.06.

Compared with RALEEVEMKLQKNFLTQRENGIAG [T21G], RALEEVEMKLQKNFLTQRENFIAG [T21F] is lower in protein stability index: 3.23 for the first, 2.86 for the second.

First: RALEEVEMKLQTNFLTQRENTIAG [K12T]
Second: RALEEVEMKLQSNFLTQRENTIAG [K12S]
The protein stability index of the first is higher: 4.2 for the first, 2.77 for the second.

Going from RALEEVEMKLQWNFLTQRENTIAG [K12W] to RALEEVEMKLQINFLTQRENTIAG [K12I], the protein stability index rises from 1.94 to 2.15.

First: RALEEVEMKLQHNFLTQRENTIAG [K12H]
Second: RALEEVEMKLQRNFLTQRENTIAG [K12R]
The protein stability index of the first is higher: 3.43 for the first, 3.31 for the second.

Going from RALEEVEMKLQFNFLTQRENTIAG [K12F] to RALEEVEMKLQVNFLTQRENTIAG [K12V], the protein stability index rises from 2 to 2.31.

Compared with RALEEVEMKLQPNFLTQRENTIAG [K12P], RALEEEEMKLQKNFLTQRENTIAG [V6E] is higher in protein stability index: 4.14 for the first, 4.75 for the second.

Compared with RALEEGEMKLQKNFLTQRENTIAG [V6G], RALEETEMKLQKNFLTQRENTIAG [V6T] is lower in protein stability index: 4.3 for the first, 3.73 for the second.

First: RALEEWEMKLQKNFLTQRENTIAG [V6W]
Second: RALEEYEMKLQKNFLTQRENTIAG [V6Y]
The protein stability index of the first is lower: 3.76 for the first, 4.03 for the second.

First: RALEEVEMLLQKNFLTQRENTIAG [K9L]
Second: RALEEVEMHLQKNFLTQRENTIAG [K9H]
The protein stability index of the first is lower: 1.73 for the first, 2.93 for the second.

Going from RALEEVEMSLQKNFLTQRENTIAG [K9S] to RALEEVEMDLQKNFLTQRENTIAG [K9D], the protein stability index rises from 3.06 to 4.13.
